The supplement of paper PMC10567573

B1: KCNAB2 (parent)
chain: YVDVVFANRPDPNTPMEETVRAMT
B2: PKD2L1 (parent)
chain: VFIFYYVVEEILELHIHRLRYLSS

Variants of: B1
Assay: protein stability index of a GFP-peptide fusion (GPS, HEK-293T) (PSI 1-6); higher = more stable
Settings: c terminus: a fixed tail appended
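Note: lentivirally expressed fusions sorted by FACS into six bins by GFP to DsRed ratio, PSI derived from sequencing read proportions per bin multiplied by bin number.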

In order of falling protein stability index:
1. YVDVVFAARPDPNTPMEETVRAMT [N8A]  2.69
2. YVDVVFANMPDPNTPMEETVRAMT [R9M]  2.67
3. YVDVEFANRPDPNTPMEETVRAMT [V5E]  2.5
4. YVDVVFANRPDPNTPMEETVGAMT [R21G]  2.37
5. YVDVVFANRPDPNTPMEETVRAMM [T24M]  2.18
6. YVDVVFTNRPDPNTPMEETVRAMT [A7T]  2.12
7. YVDVVFANRPDPNTPMEEHVRAMT [T19H]  2.1
8. YVDVVFLNRPDPNTPMEETVRAMT [A7L]  1.98
9. YVDVVFANRPDPRTPMEETVRAMT [N13R]  1.98
10. YVDVVFANRPDPMTPMEETVRAMT [N13M]  1.98
11. YVDVVFANRPDPNTPMEETVRAMC [T24C]  1.98
12. YVDVVFANRPDPNTPMEEYVRAMT [T19Y]  1.62
13. YVDVVFANRPDPNTDMEETVRAMT [P15D]  1.49
14. YVDVVFANYPDPNTPMEETVRAMT [R9Y]  1.47

Variants of: B2
Assay: as above
Settings: c terminus: a fixed tail appended

In order of rising protein stability index:
1. VFIFYYVVEEILELHIHRLRYLSK [S24K]  1.12
2. VFIFYYVVEEILELHIHRLRYNSS [L22N]  1.32
3. VFIFYYVVEEILELHIHRLRRLSS [Y21R]  1.55
4. VFIFYYVVEEILELHIHRLRNLSS [Y21N]  1.61
5. VFIFYYVVEEILELHIHHLRYLSS [R18H]  1.63
6. VFIFYYVVEEILELHIHVLRYLSS [R18V]  1.65
7. VFIFYYVVEEILELHIERLRYLSS [H17E]  1.77
8. VFIFYYVVEEILELHIHRLRYLNS [S23N]  1.82
9. VFIFYYVVEEILELHIHRLQYLSS [R20Q]  1.89
10. VFIFYYVVEEILELHIHRLRDLSS [Y21D]  1.89
11. VFIFYYVVEEILELHIHRLIYLSS [R20I]  1.98
12. VFIFYYVVEEILELHIHRLRYLCS [S23C]  1.99
13. VFIFYYVVEEILELHIHRLRYLFS [S23F]  2.05
14. VFIFYYVVEEILELHIHRLRLLSS [Y21L]  2.06
15. VFIFYYVVEEILELHIHRLRYLES [S23E]  2.12
16. VFIFYYVVEEILELHIHRLGYLSS [R20G]  2.12
17. VFIFYYVVEEILELHIKRLRYLSS [H17K]  2.13
18. VFIFYYVVEEILELHILRLRYLSS [H17L]  2.14
19. VFIFYYVVEEILELHIHRLRYLYS [S23Y]  2.19
20. VFIFYYVVEEILELHIHRLRYLSE [S24E]  2.21
21. VFIFYYVVEEILELHIHRLRELSS [Y21E]  2.27
22. VFIFYYVVEEILELHIHRNRYLSS [L19N]  2.31
23. VFIFYYVVEEILELHIHRLHYLSS [R20H]  2.34
24. VFIFYYVVEEILELHIHRLKYLSS [R20K]  2.34
25. VFIFYYVVEEILELHIHRLRYGSS [L22G]  2.34
26. VFIFYYVVEEILELHIHRLRYLSF [S24F]  2.37
27. VFIFYYVVEEILELHIHQLRYLSS [R18Q]  2.37
28. VFIFYYVVEEILELHIHRLLYLSS [R20L]  2.38
29. VFIFYYVVEEILELHIHRLWYLSS [R20W]  2.38
30. VFIFYYVVEEILELHIHRLRYESS [L22E]  2.43
31. VFIFYYVVEEILELHIHRLRYLST [S24T]  2.47
32. VFIFYYVVEEILELHIHRMRYLSS [L19M]  2.53
33. VFIFYYVVEEILELHIPRLRYLSS [H17P]  2.54
34. VFIFYYVVEEILELHIHRLRYLSL [S24L]  2.58
35. VFIFYYVVEEILELHIHCLRYLSS [R18C]  2.63
36. VFIFYYVVEEILELHIHKLRYLSS [R18K]  2.64
37. VFIFYYVVEEILELHIYRLRYLSS [H17Y]  2.69
38. VFIFYYVVEEILELHIHRCRYLSS [L19C]  2.7
39. VFIFYYVVEEILELHIHRLYYLSS [R20Y]  2.76
40. VFIFYYVVEEILELHIHELRYLSS [R18E]  2.76
41. VFIFYYVVEEILELHIHRDRYLSS [L19D]  2.8
42. VFIFYYVVEEILELHIHRLRKLSS [Y21K]  2.84
43. VFIFYYVVEEILELHIHRLFYLSS [R20F]  2.85
44. VFIFYYVVEEILELHIFRLRYLSS [H17F]  2.87
45. VFIFYYVVEEILELHIHRLRYLSP [S24P]  2.94
46. VFIFYYVVEEILELHIHRLRHLSS [Y21H]  2.96
47. VFIFYYVVEEILELHIIRLRYLSS [H17I]  2.97
48. VFIFYYVVEEILELHIDRLRYLSS [H17D]  3
49. VFIFYYVVEEILELHIHMLRYLSS [R18M]  3.01
50. VFIFYYVVEEILELHIHRLRPLSS [Y21P]  3.02
51. VFIFYYVVEEILELHIHRLRYLVS [S23V]  3.04
52. VFIFYYVVEEILELHIHRLRTLSS [Y21T]  3.04
53. VFIFYYVVEEILELHIHRLRYLSH [S24H]  3.15
54. VFIFYYVVEEILELHIHRLRYKSS [L22K]  3.19
55. VFIFYYVVEEILELHIHRLVYLSS [R20V]  3.27
56. VFIFYYVVEEILELHIHRLRVLSS [Y21V]  3.28
57. VFIFYYVVEEILELHIHRLRYFSS [L22F]  3.34
58. VFIFYYVVEEILELHIHRLRYLQS [S23Q]  3.46
59. VFIFYYVVEEILELHIHRLRYISS [L22I]  3.59
60. VFIFYYVVEEILELHIHRLRGLSS [Y21G]  3.65
61. VFIFYYVVEEILELHIHRLRYCSS [L22C]  3.65
62. VFIFYYVVEEILELHIHRLRFLSS [Y21F]  3.66
63. VFIFYYVVEEILELHIHRLRQLSS [Y21Q]  3.68
64. VFIFYYVVEEILELHISRLRYLSS [H17S]  3.69
65. VFIFYYVVEEILELHIHRWRYLSS [L19W]  3.75
66. VFIFYYVVEEILELHIHRLRYTSS [L22T]  3.77
67. VFIFYYVVEEILELHIHLLRYLSS [R18L]  3.78
68. VFIFYYVVEEILELHIHRLRYLTS [S23T]  3.81
69. VFIFYYVVEEILELHIHRLTYLSS [R20T]  3.91
70. VFIFYYVVEEILELHIMRLRYLSS [H17M]  3.93
71. VFIFYYVVEEILELHIHRLRYLSN [S24N]  3.95
72. VFIFYYVVEEILELHIHRLRYLIS [S23I]  4
73. VFIFYYVVEEILELHIHRLRMLSS [Y21M]  4.01
74. VFIFYYVVEEILELHIHRTRYLSS [L19T]  4.02
75. VFIFYYVVEEILELHIGRLRYLSS [H17G]  4.03
76. VFIFYYVVEEILELHIVRLRYLSS [H17V]  4.2
77. VFIFYYVVEEILELHIHRLDYLSS [R20D]  4.23
78. VFIFYYVVEEILELHIHRLRYLRS [S23R]  4.53
79. VFIFYYVVEEILELHIHRLRYPSS [L22P]  4.59
80. VFIFYYVVEEILELHIQRLRYLSS [H17Q]  4.68
